# Measured values taken from article PMC6474364, “The Carbon Switch at the Level of Pyruvate and Phosphoenolpyruvate in Sulfolobus solfataricus P2” (Frontiers in Microbiology, 2019).
# T1: PEPS (SSO0883) (Saccharolobus solfataricus, UniProt Q97ZL2)
# T1 construct: gene ppsA-1; full-length, codon-optimised synthetic gene in pET11c, E. coli Rosetta (DE3) pRIL; partially purified by heat precipitation; no tag mentioned
# T1 sequence (Q97ZL2 1-799): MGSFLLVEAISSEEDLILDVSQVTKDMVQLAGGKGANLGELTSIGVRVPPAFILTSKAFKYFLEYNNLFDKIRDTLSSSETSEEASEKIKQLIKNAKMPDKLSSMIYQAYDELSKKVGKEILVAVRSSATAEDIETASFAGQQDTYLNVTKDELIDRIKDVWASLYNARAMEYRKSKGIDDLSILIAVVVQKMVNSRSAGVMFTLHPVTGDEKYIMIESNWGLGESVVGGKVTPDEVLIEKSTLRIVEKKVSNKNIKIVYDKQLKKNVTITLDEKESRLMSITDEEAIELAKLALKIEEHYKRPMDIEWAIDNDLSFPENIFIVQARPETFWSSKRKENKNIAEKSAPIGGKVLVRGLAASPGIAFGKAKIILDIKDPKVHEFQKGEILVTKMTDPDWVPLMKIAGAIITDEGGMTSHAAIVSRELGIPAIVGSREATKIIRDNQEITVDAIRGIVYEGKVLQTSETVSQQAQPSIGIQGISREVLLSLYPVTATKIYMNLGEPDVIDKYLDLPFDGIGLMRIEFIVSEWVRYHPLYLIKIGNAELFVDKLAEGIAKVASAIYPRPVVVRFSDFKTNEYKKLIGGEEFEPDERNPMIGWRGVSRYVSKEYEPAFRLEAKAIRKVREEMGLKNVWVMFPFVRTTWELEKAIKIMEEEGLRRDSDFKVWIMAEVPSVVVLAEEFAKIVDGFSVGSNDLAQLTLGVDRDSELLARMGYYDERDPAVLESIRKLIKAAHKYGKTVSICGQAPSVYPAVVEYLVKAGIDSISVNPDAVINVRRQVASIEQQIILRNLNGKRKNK
# T2: PK (SSO0981) (Saccharolobus solfataricus, UniProt Q97ZD7)
# T2 construct: gene pyK; full-length ORF in pET324, E. coli Rosetta (DE3) pRIL; heat precipitation, ion exchange, gel filtration; no tag mentioned
# T2 sequence (Q97ZD7 1-452): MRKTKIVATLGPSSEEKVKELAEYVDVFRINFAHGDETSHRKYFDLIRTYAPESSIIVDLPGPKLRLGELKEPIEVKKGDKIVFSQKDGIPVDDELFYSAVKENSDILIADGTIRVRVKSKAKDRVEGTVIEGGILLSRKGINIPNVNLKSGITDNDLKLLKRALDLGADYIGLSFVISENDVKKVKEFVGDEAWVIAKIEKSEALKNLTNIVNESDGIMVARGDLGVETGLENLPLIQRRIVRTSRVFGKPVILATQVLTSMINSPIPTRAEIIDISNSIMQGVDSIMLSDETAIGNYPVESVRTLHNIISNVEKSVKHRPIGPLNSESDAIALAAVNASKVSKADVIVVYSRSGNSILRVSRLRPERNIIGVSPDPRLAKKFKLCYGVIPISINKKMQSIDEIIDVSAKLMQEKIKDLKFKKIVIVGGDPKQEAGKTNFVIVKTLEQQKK
# Experiments:
# [1] = target: T1, PEPS (SSO0883); test: discontinuous assay, PEP detected with PK/LDH, NADH […] nm; type: biochemical; conditions: read-out: % residual activity at 1 mM
# [2] = target: T2, PK (SSO0981); test: continuous LDH-coupled assay, NADH […] nm; type: biochemical; conditions: non-competitive, allosteric; printed Ki equals the approximate concentration for 50% inhibition; half-saturating 0.03 mM PEP, 2 mM ADP, 10 mM MgCl2, 60°C (b61 says 70°C)
# [3] = substrate: Nc1ncnc2c1ncn2[C@@H]1O[C@H](COP(=O)(O)OP(=O)(O)O)[C@@H](O)[C@H]1O; test: purified protein; type: biochemical, Saccharolobus solfataricus; conditions: 70°C, pH 6.5, 0.1 M HEPES, 10 mM MgCl2, co-substrate PEP
# [4] = substrate: C=C(OP(=O)(O)O)C(=O)O; test: purified protein; type: biochemical, Saccharolobus solfataricus; conditions: 70°C, pH 6.5, 0.1 M HEPES, 10 mM MgCl2, co-substrate ADP
# [5] = substrate: Nc1ncnc2c1ncn2[C@@H]1O[C@H](COP(=O)(O)OP(=O)(O)OP(=O)(O)O)[C@@H](O)[C@H]1O; test: purified protein; type: biochemical, Saccharolobus solfataricus; conditions: 70°C, pH 7.0, 100 mM Tris/HCl, 10 mM MgCl2, co-substrate pyruvate, anabolic direction
# [6] = substrate: CC(=O)C(=O)O; test: purified protein; type: biochemical, Saccharolobus solfataricus; conditions: 70°C, pH 7.0, 100 mM Tris/HCl, 10 mM MgCl2, co-substrate ATP, anabolic direction
molecule,measurement,setting,value
O=C(O)CCC(=O)C(=O)O [α-ketoglutarate],remaining activity at 1000 µM,[1],~80%
Nc1ncnc2c1ncn2[C@@H]1O[C@H](COP(=O)(O)OP(=O)(O)OP(=O)(O)O)[C@@H](O)[C@H]1O [ATP],IC50,[2],800 µM
Nc1ncnc2c1ncn2[C@@H]1O[C@H](COP(=O)(O)O)[C@@H](O)[C@H]1O [AMP],remaining activity at 1000 µM,[1],~80%
"PK (SSO0981) (Saccharolobus solfataricus P2) (protein, full-length ORF in pET324, E. coli Rosetta (DE3) pRIL; heat precipitation, ion exchange, gel filtration; no tag mentioned) MRKTKIVATLGPSSEEKVKELAEYVDVFRINFAHGDETSHRKYFDLIRTYAPESSIIVDLPGPKLRLGELKEPIEVKKGDKIVFSQKDGIPVDDELFYSAVKENSDILIADGTIRVRVKSKAKDRVEGTVIEGGILLSRKGINIPNVNLKSGITDNDLKLLKRALDLGADYIGLSFVISENDVKKVKEFVGDEAWVIAKIEKSEALKNLTNIVNESDGIMVARGDLGVETGLENLPLIQRRIVRTSRVFGKPVILATQVLTSMINSPIPTRAEIIDISNSIMQGVDSIMLSDETAIGNYPVESVRTLHNIISNVEKSVKHRPIGPLNSESDAIALAAVNASKVSKADVIVVYSRSGNSILRVSRLRPERNIIGVSPDPRLAKKFKLCYGVIPISINKKMQSIDEIIDVSAKLMQEKIKDLKFKKIVIVGGDPKQEAGKTNFVIVKTLEQQKK",Km,[3],70 µM
same,Vmax,[3],70.8 µmol/min/mg
same,kcat,[3],58.8 s⁻¹
same,kcat/Km,[3],852000 M⁻¹ s⁻¹
same,Km,[4],90 µM
same,Vmax,[4],70.4 µmol/min/mg
same,kcat,[4],58.4 s⁻¹
same,kcat/Km,[4],628000 M⁻¹ s⁻¹
"PEPS (SSO0883) (Saccharolobus solfataricus P2) (protein, full-length, codon-optimised synthetic gene in pET11c, E. coli Rosetta (DE3) pRIL; partially purified by heat precipitation; no tag mentioned) MGSFLLVEAISSEEDLILDVSQVTKDMVQLAGGKGANLGELTSIGVRVPPAFILTSKAFKYFLEYNNLFDKIRDTLSSSETSEEASEKIKQLIKNAKMPDKLSSMIYQAYDELSKKVGKEILVAVRSSATAEDIETASFAGQQDTYLNVTKDELIDRIKDVWASLYNARAMEYRKSKGIDDLSILIAVVVQKMVNSRSAGVMFTLHPVTGDEKYIMIESNWGLGESVVGGKVTPDEVLIEKSTLRIVEKKVSNKNIKIVYDKQLKKNVTITLDEKESRLMSITDEEAIELAKLALKIEEHYKRPMDIEWAIDNDLSFPENIFIVQARPETFWSSKRKENKNIAEKSAPIGGKVLVRGLAASPGIAFGKAKIILDIKDPKVHEFQKGEILVTKMTDPDWVPLMKIAGAIITDEGGMTSHAAIVSRELGIPAIVGSREATKIIRDNQEITVDAIRGIVYEGKVLQTSETVSQQAQPSIGIQGISREVLLSLYPVTATKIYMNLGEPDVIDKYLDLPFDGIGLMRIEFIVSEWVRYHPLYLIKIGNAELFVDKLAEGIAKVASAIYPRPVVVRFSDFKTNEYKKLIGGEEFEPDERNPMIGWRGVSRYVSKEYEPAFRLEAKAIRKVREEMGLKNVWVMFPFVRTTWELEKAIKIMEEEGLRRDSDFKVWIMAEVPSVVVLAEEFAKIVDGFSVGSNDLAQLTLGVDRDSELLARMGYYDERDPAVLESIRKLIKAAHKYGKTVSICGQAPSVYPAVVEYLVKAGIDSISVNPDAVINVRRQVASIEQQIILRNLNGKRKNK",Km,[5],610 µM
same,Vmax,[5],0.22 µmol/min/mg
same,kcat,[5],0.33 s⁻¹
same,kcat/Km,[5],530 M⁻¹ s⁻¹
same,Km,[6],460 µM
same,Vmax,[6],0.32 µmol/min/mg
same,kcat,[6],0.48 s⁻¹
same,kcat/Km,[6],1040 M⁻¹ s⁻¹
